Measured values taken from the supplement of paper PMC12764529.
± gives the half width of the 95% confidence interval.

Assay: folding stability dG unfold from chymotrypsin proteolysis; higher = more stable
Method in brief: (§1)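 Digests were run with trypsin and chymotrypsin at 11 concentrations in threefold dilutions, plus a no-protease condition, on designed mini-proteins in a PA-tagged cDNA display construct. The mini-proteins were under 80 residues, had no cysteine, and were kept only when AlphaFold2 dimer inter-PAE was above 15. After sequencing, Bayesian fitting of the counts gave K50, from which unfolding free energy was derived against a sequence-predicted unfolded-state K50 and a shared folded-state K50, per protease or combined.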

Row | Sequence | folding stability dG unfold
1 | SAGGMVEVKPFEIKPPGSSITVTLTDPQGNVIGSTTVSVPTGRLELTITVEPDKTVKVTLTELPPSEVSAGG [r13_935_JUSTAS] | -0.262 ± 0.34 kcal/mol
2 | SAGIYIPMDMTIDELVDILQKFGIRSVTTERMPEPGMYKATLKFPDLTIEIWYHPNWMHIEIVPPGEPISAG [r5_899_TrROS] | 4.18 ± 0.07 kcal/mol
3 | SAGGSAGGSILVIKIKFPGNGRPIHYPIKDPEDFDRVLKKAKERFPGYDKDNIKEAEIYPLPPSAGGSAGGS [r12_852_TrROS] | -0.00689 ± 0.29 kcal/mol
4 | SAGGSAGGSMHEDEQLPYEAAEKYTILKLKEENEKLNLPPIPIKKIEIEKDPETGLVRVKVYGSAGGSAGGS [r12_583_TrMRF] | -0.579 ± 0.6 kcal/mol
5 | SAGGSAMSLSDIKDVDVYRNPNGWYTAKLKIKDPNNGKDKEVNIHVPPGQTPEKAKNIAREILKELSAGGSA [r15_181_TrROS] | 1.43 ± 0.11 kcal/mol
6 | SAGGSLEDFELAGTFPATSEGETLLVTVWKSKEPGKYVVSAYYPSTGIPEVKVVNPEDIEEFFKNLYSAGGS [r8_469_TrMRF] | 1.95 ± 0.051 kcal/mol
7 | SAGGSAGGSAKKPPVYKIKIKVVNKKTKKEIEIEVEVKAGKTPEEIAKELAKKFGIEKVEIESAGGSAGGSA [r18_58_TrROS_Hall] | 1.47 ± 0.18 kcal/mol
8 | SAGMLEISSDVLKALGIPVGATAEEVKERIQRRLEELGFEVEIPSVVIEELDPETGRVGVRIDLDLRPPSAG [r5_23_TrMRF] | 2.23 ± 0.35 kcal/mol
9 | SAGGMKTAVLTLEVPGLPKRLVLIAGESEEEYKKLAAEAEKPGYEFLGYTTLEELVERTGLPASLLLSAGGS [r16_438_JUSTAS] | 1.07 ± 0.28 kcal/mol
10 | SAGGSAGGSAGASPSVPFTVKVTIKSPNGLSTKTISLSSLEDLEALPLPNVVEIEITPLSSAGGSAGGSAGG [r17_290_JUSTAS] | 0.78 ± 0.14 kcal/mol
11 | SAGGSAGGSKKTVLVRITVTLPNGEKREIELEVEVDSVEDLKELLKKLPLPPGMKVTIEVVPASAGGSAGGS [r20_162_TrROS_Hall] | 3.4 ± 0.2 kcal/mol
12 | SAGGSAGGSAGGGLSSAPPPVVALSSSVSLVPSPSGGILTVTTTTDAGSGTTTTTTTALSAGGSAGGSAGGS [r10_1137_JUSTAS] | 0.758 ± 0.025 kcal/mol
13 | SAGGSDLKVQVNKDGNTIRIQLPDGKPIFEIPFYRYDPDDGKPLEPWTIRMRLDPDGNIKIEEITPSAGGSA [r2_362_TrROS] | 1.45 ± 0.14 kcal/mol
14 | SAGGSAFRVQTWDDGKPRKIPIGESLDDLKDQIDDNPNYPIYIEFPNGKPFHMPWSDIKNMIDQLKSAGGSA [r15_36_TrROS] | -0.196 ± 0.47 kcal/mol
15 | SSSGPKTELITLKYEEPVRSPEEAEARARALAEEIAERTGAPIEVDVEIEYDPETGKAYVTVPVRVLLPDSA [r9_741_JUSTAS] | 0.124 ± 0.16 kcal/mol
16 | SAGGSAGGSSPSSVSTYDIEFPDGTKIKITVTLGPGTPVVEITTLTESPPVKRVANTEEVKFESAGGSAGGS [r20_100_JUSTAS] | 0.995 ± 0.041 kcal/mol
17 | SAGGSAGGSISIDPAKVLEVKTRANGQLLITTEDEVYVVDPSTGTVTKITKEEAEKLPEDVPLLSAGGSAGG [r6_890_JUSTAS] | 1.94 ± 0.037 kcal/mol
18 | SAGGSAGGMTVTTTSSFDPTSPTANTLTTTYVSPEELKRPEIQALPDLPGKTLEFPTTTPVPPPSAGGSAGG [r6_768_JUSTAS] | 0.0452 ± 0.048 kcal/mol
19 | SAGGKPKPGQEVEMKMIMLMVTKPGEITIMRMKMEMRVNPDGNVQMDMKMEMVRVPLSKDQAKELLNASAGG [r13_544_TrROS] | 4.25 ± 0.24 kcal/mol
20 | SAGGLDAVLAELAKKPPGVTVELPVELPDGSRVVLTATWPAETSSPVITVKYYDPNRPEAVEEETFTVTSAG [r5_35_JUSTAS] | 1.47 ± 0.049 kcal/mol
21 | SAGGSAGGSIEIFKSPEGWYVRIWFPGKPQVIPIDDAEDLKNFEIPIPNGRPIKVEILPPKDLSAGGSAGGS [r12_730_TrROS] | 2.32 ± 0.032 kcal/mol

Row | Sequence | folding stability dG unfold
22 | SAGGSAGGSGMVEEEEYEDPATGVRTRTTTTYLPNGTVVRTPVVYTPDRPVEEVPTVTPIPSGSAGGSAGGS [r20_88_JUSTAS] | 0.62 ± 0.13 kcal/mol
23 | SAGGSAGGSAMTPETIKEKYPNVDYSPSPLGGKTVYTFTFPSGSTVTVTFNPGSATITTIAGSAGGSAGGSA [r18_13_JUSTAS] | 3.38 ± 0.07 kcal/mol
24 | SAGGSAGMDPSKVSLSISTKTYTDTATGRKVEELYFEGSGKKVTVTTLPDGTKIVTYENGVVIEVESAGGSA [r15_617_JUSTAS] | -0.672 ± 0.24 kcal/mol
25 | SAGDKKTIELWFMFKTPEEARHEADSIARRLAEEGLTIKVELKDIEPMPDPDGEKYYMFEFKVTIQLPNSAG [r5_158_TrROS] | 3.28 ± 0.12 kcal/mol
26 | SAGGSKVRIEVEELPDGTVKVTAEVEVDGVLYKIEAEFRINEDGEIVEMKVKIEARPLPPPPPPEESAGGSA [r2_474_TrROS_Hall] | 4.17 ± 0.17 kcal/mol
27 | SAGGSPGQPYYIMIKLEWENPEDGEEHTFDIMFPVKSAEDAKDYILKELLPPGHKLKIDDISIMPMSAGGSA [r2_320_TrROS] | 1.19 ± 0.1 kcal/mol
28 | SAGGSAGGSKTIVLPKNMSIEQAREEILAKARELLPPGEKLKVTIEVVETPEGTYLKITIEKESAGGSAGGS [r12_1051_TrROS_Hall] | 3.51 ± 0.086 kcal/mol
29 | SAGMPLRTVKVLVTINDKTEEKTLSEEELKALIESGELELLGKEPEENIVYVYKKVPPPVGSKTKKSLLSAG [r5_868_JUSTAS] | 1.94 ± 0.17 kcal/mol
30 | SASFTLTPVTVTLSPDPETGAILAPVLATAGDHPVFGLAYVDPLDPSRAYYRIYYPPSDLVEYAVVPLPSAG [r14_178_TrMRF] | 0.847 ± 0.15 kcal/mol
31 | SAGPPKKREFEIMIQIPLPPGQSAEELKDLLEIPIRLPDGKTIEIRPRAIEVDPGPGQVTVHYKIEVTDSAG [r5_939_TrROS] | 0.498 ± 0.11 kcal/mol
32 | SAGGSGMVITIPVELPTPRTLTFTFYPETGTATVEVSPGVPAAEVRATVEEVFAAHGLKLNPITLLSAGGSA [r2_497_JUSTAS] | 1.61 ± 0.075 kcal/mol
33 | SAGGSAGGSAGGKTVWIPWDDLEELKDLPPGKKRTIHLWNPKNGRWYRITVTDNNIEIERSAGGSAGGSAGG [r7_765_TrROS] | 3.088 ± 0.013 kcal/mol
34 | SAGGSAGGSAGEKTFVIDEVKITSVERLPDGSLRVTIEVRLPNGETLTLTLTLPPGAVLESAGGSAGGSAGG [r11_429_TrROS_Hall] | 3.19 ± 0.042 kcal/mol
35 | SAGGSAGGSKMVLKVTLENGKTIEIEAGETIEEIKAKIEEEFGKPVKIKVEKVSAEELGLKPESAGGSAGGS [r12_379_TrROS_Hall] | 1.59 ± 0.055 kcal/mol
36 | SAGGSAKPKVEVEIVDVEFEEVEVNGKKYLVMKMKVKLKETGEYIEVTMVFDLKTNKMYIEVKKLPSAGGSA [r15_528_TrROS_Hall] | 5.09 ± 0.24 kcal/mol
37 | SAGGSATLKEIAKEIEKTVKPKYAKKLAKTIEEAVKKGYEIKKIIIEKPKDDSFKATIYLKKPNDPSAGGSA [r15_613_TrMRF] | 0.294 ± 0.45 kcal/mol
38 | SWNLRLEIEEVEIEPSDNWIIIMVRVEIEGRNPDDPNKPRPVFEVWVMIPIPLPPPKPKPDPDDPAAAKDSA [r9_357_TrROS] | 3.5 ± 0.15 kcal/mol
39 | SAGGSAAKPGETVRVVVTVRVPPGATAEELKAALEALLGPDAEVTVEVFETPDTVVVVVEVRLPPASAGGSA [r15_749_TrROS_Hall] | 2.66 ± 0.11 kcal/mol
40 | SMITSTTTTDPNSNTTTTTYTYPDTTYTVTRTLNPDNTVTVTVTATTPPGPTTPLSTVNLSPTDTLTLPVSA [r9_1172_JUSTAS] | 1.26 ± 0.068 kcal/mol
41 | SAGKMLVVRIEVEVEVEVTVEKDGKKETFKEKKKLTLTLVFESEEEAEAAKKELEKLFPDLKIEVVPLPSAG [r5_453_TrROS_Hall] | 4.56 ± 0.16 kcal/mol
42 | SAGGSAGGSKLRLVLKFKTPEEAEEAARKLAEELKKKEGVKEVKVSVVKVNGEYYVVVEVEKESAGGSAGGS [r12_7_TrROS_Hall] | 4.15 ± 0.11 kcal/mol

Assay: folding stability dG unfold from trypsin proteolysis; higher = more stable
Method in brief: as §1

Row | Sequence | folding stability dG unfold
43 | SAGGMVEVKPFEIKPPGSSITVTLTDPQGNVIGSTTVSVPTGRLELTITVEPDKTVKVTLTELPPSEVSAGG [r13_935_JUSTAS] | 1.42 ± 0.086 kcal/mol
44 | SAGIYIPMDMTIDELVDILQKFGIRSVTTERMPEPGMYKATLKFPDLTIEIWYHPNWMHIEIVPPGEPISAG [r5_899_TrROS] | 2.77 ± 0.12 kcal/mol
45 | SAGGSAGGSILVIKIKFPGNGRPIHYPIKDPEDFDRVLKKAKERFPGYDKDNIKEAEIYPLPPSAGGSAGGS [r12_852_TrROS] | -0.436 ± 0.22 kcal/mol
46 | SAGGSAGGSMHEDEQLPYEAAEKYTILKLKEENEKLNLPPIPIKKIEIEKDPETGLVRVKVYGSAGGSAGGS [r12_583_TrMRF] | -0.788 ± 0.42 kcal/mol
47 | SAGGSAMSLSDIKDVDVYRNPNGWYTAKLKIKDPNNGKDKEVNIHVPPGQTPEKAKNIAREILKELSAGGSA [r15_181_TrROS] | 0.606 ± 0.03 kcal/mol
48 | SAGGSLEDFELAGTFPATSEGETLLVTVWKSKEPGKYVVSAYYPSTGIPEVKVVNPEDIEEFFKNLYSAGGS [r8_469_TrMRF] | 1.48 ± 0.02 kcal/mol
49 | SAGGSAGGSAKKPPVYKIKIKVVNKKTKKEIEIEVEVKAGKTPEEIAKELAKKFGIEKVEIESAGGSAGGSA [r18_58_TrROS_Hall] | 1.14 ± 0.12 kcal/mol
50 | SAGMLEISSDVLKALGIPVGATAEEVKERIQRRLEELGFEVEIPSVVIEELDPETGRVGVRIDLDLRPPSAG [r5_23_TrMRF] | 3.05 ± 0.18 kcal/mol
51 | SAGGMKTAVLTLEVPGLPKRLVLIAGESEEEYKKLAAEAEKPGYEFLGYTTLEELVERTGLPASLLLSAGGS [r16_438_JUSTAS] | 0.916 ± 0.085 kcal/mol
52 | SAGGSAGGSAGASPSVPFTVKVTIKSPNGLSTKTISLSSLEDLEALPLPNVVEIEITPLSSAGGSAGGSAGG [r17_290_JUSTAS] | 1.04 ± 0.049 kcal/mol
53 | SAGGSAGGSKKTVLVRITVTLPNGEKREIELEVEVDSVEDLKELLKKLPLPPGMKVTIEVVPASAGGSAGGS [r20_162_TrROS_Hall] | 4.48 ± 0.31 kcal/mol
54 | SAGGSAGGSAGGGLSSAPPPVVALSSSVSLVPSPSGGILTVTTTTDAGSGTTTTTTTALSAGGSAGGSAGGS [r10_1137_JUSTAS] | 2.44 ± 0.068 kcal/mol
55 | SAGGSDLKVQVNKDGNTIRIQLPDGKPIFEIPFYRYDPDDGKPLEPWTIRMRLDPDGNIKIEEITPSAGGSA [r2_362_TrROS] | 1.77 ± 0.044 kcal/mol
56 | SAGGSAFRVQTWDDGKPRKIPIGESLDDLKDQIDDNPNYPIYIEFPNGKPFHMPWSDIKNMIDQLKSAGGSA [r15_36_TrROS] | 0.172 ± 0.17 kcal/mol
57 | SSSGPKTELITLKYEEPVRSPEEAEARARALAEEIAERTGAPIEVDVEIEYDPETGKAYVTVPVRVLLPDSA [r9_741_JUSTAS] | 1.14 ± 0.037 kcal/mol
58 | SAGGSAGGSSPSSVSTYDIEFPDGTKIKITVTLGPGTPVVEITTLTESPPVKRVANTEEVKFESAGGSAGGS [r20_100_JUSTAS] | -0.0821 ± 0.059 kcal/mol
59 | SAGGSAGGSISIDPAKVLEVKTRANGQLLITTEDEVYVVDPSTGTVTKITKEEAEKLPEDVPLLSAGGSAGG [r6_890_JUSTAS] | 1.9 ± 0.042 kcal/mol
60 | SAGGSAGGMTVTTTSSFDPTSPTANTLTTTYVSPEELKRPEIQALPDLPGKTLEFPTTTPVPPPSAGGSAGG [r6_768_JUSTAS] | 0.679 ± 0.031 kcal/mol
61 | SAGGKPKPGQEVEMKMIMLMVTKPGEITIMRMKMEMRVNPDGNVQMDMKMEMVRVPLSKDQAKELLNASAGG [r13_544_TrROS] | 2.68 ± 0.07 kcal/mol
62 | SAGGLDAVLAELAKKPPGVTVELPVELPDGSRVVLTATWPAETSSPVITVKYYDPNRPEAVEEETFTVTSAG [r5_35_JUSTAS] | 1.34 ± 0.08 kcal/mol
63 | SAGGSAGGSIEIFKSPEGWYVRIWFPGKPQVIPIDDAEDLKNFEIPIPNGRPIKVEILPPKDLSAGGSAGGS [r12_730_TrROS] | 1.66 ± 0.047 kcal/mol
